The source of these data is patent publication US12692524B2, “Sialyltransferases and their use in producing sialylated oligosaccharides” (Chr. Hansen A/S, priority 2017, dated 2026).

The nature of series [1]: In vitro sialylation of LNT by protein extracts, LST-a/-b quantified by LC-MS/MS. In kind it is biochemical. Summed up:
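E. coli BL21(DE3) crude extracts overexpressing sialyltransferases (IPTG 0.3 mM, 12–16 h at 30 °C) incubated 16 h with 5 mM LNT and 10 mM CMP-Neu5Ac in 50 mM Tris-HCl pH 7.5, 5 mM MgCl2. LST-a and LST-b measured by HILIC LC-MS/MS, MRM in ESI negative mode, against commercial standards.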

Series [2] can be described thus: In vivo screening in E. coli #1363/#1730 with lactose as acceptor, sialyllactose identified by TLC. The class given is cell-based, Escherichia coli BL21(DE3). The note with it: 1.5 mM lactose, 72 to 96 hours, qualitative via TLC. The method, boiled down: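 E. coli BL21(DE3) #1363/#1730 expressing sialyltransferases were grown at 30 °C in mineral salts medium with 2% glucose and induced with 0.3 mM IPTG. After 1 h, 1.5 mM lactose was added, plus 1.5 mM sialic acid for #1730, and incubation ran 72–96 h. Cell lysates were analysed by silica TLC with thymol staining.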

Series [3] in a line: In vitro kinetics (Km, Vmax), donor substrate CMP-Neu5Ac. The class given is biochemical. The note with it: 30° C., pH7.5, protein extract. As for the experimental part: (§1) To rank the best performing sialyltransferases, their Km values for donor and acceptor substrates were determined in vitro. Escherichia coli BL21(DE3) strain #287 was used for overproduction of the enzymes. Cells were incubated in 100 ml 2YT medium in shaking flasks supplemented with 100 μg m^−1 ampicillin at 30° C. until an OD600 of 0.3 was reached. Then, 0.3 mM IPTG was added and the incubation was continued for 12 to 16 hours. Cells were harvested by centrifugation and mechanically disrupted in a defined volume of 50 mM Tris-HCl pH7.5 using glass beads. The protein extract was kept on ice until the assay started. The in vitro assay was carried out in a total volume of 50 μl including 50 mM Tris-HCl pH7.5, 5 mM MgCl2 and varying concentrations of CMP-Neu5Ac (0.05-30 mM) as well as of lactose or LNT (0.1-50 mM). The assay started with the addition of 35 to 750 μg protein extract. After 1 to 10 minutes of incubation at 30° C., the assay was inactivated at 95° C. for 5 minutes. Product formation was determined by mass spectrometry. Data were evaluated using the enzyme kinetic module of SigmaPlot v12.5 to calculate Km and Vmax.
(§2) Their kinetic parameters for CMP-Neu5Ac and LNT as well as lactose are depicted in Table 6.

Series [4] in a line: In vitro kinetics (Km, Vmax), acceptor substrate lactose. The class given is biochemical. To be noted: 30° C., pH7.5, protein extract. Here is the method:
as §1, §2

Series [5] is described as follows: In vitro kinetics (Km, Vmax), acceptor substrate LNT. In kind it is biochemical. To be noted: 30° C., pH7.5, protein extract. As for the experimental part:
as §1, §2

B1: SiaT18: sialyltransferase of Photobacterium leiognathi JT-SHIZ-119, acc. AB500947, SEQ ID NO: 28 (protein, listed as Photobacterium leiognathi)
chain: MCNDNQNTVDVVVSTVNDNVIENNTYQVKPIDTPTTFDSYSWIQTCGTPILKDDEKYSLSFDFVAPELDQDEKFCFEFTGDVDGKRYVTQTNLTVVAPTLEVYVDHASLPSLQQLMKIIQQKNEYSQNERFISWGRIGLTEDNAEKLNAHIYPLAGNNTSQELVDAVIDYADSKNRLNLELNTNTAHSFPNLAPILRIISSKSNILISNINLYDDGSAEYVNLYNWKDTEDKSVKLSDSFLVLKDYFNGISSEKPSGIYGRYNWHQLYNTSYYFLRKDYLTVEPQLHDLREYLGGSLKQMSWDGFSQLSKGDKELFLNIVGFDQEKLQQEYQQSELPNFVFTGTTTWAGGETKEYYAQQQVNVVNNAINETSPYYLGREHDLFFKGHPRGGIINDIILGSFNNMIDIPAKVSFEVLMMTGMLPDTVGGIASSLYFSIPAEKVSFIVFTSSDTITDREDALKSPLVQVMMTLGIVKEKDVLFWSDLPDCSSGVCIAQY
On to B1, for which the “Relative efficacy of sialyltransferases regarding in-vitro production of sialyllacto-N-tetraoses: LST-b” value in series [1] (5 mM LNT, 10 mM CMP-Neu5Ac, 16 hours, LC-MS/MS, relative quantity, n.d.: not detectable) was 303. In addition, the “Ranking in the screening for sialylation of LNT” value in series [1] (in words) was “sialylate LNT most efficiently among the tested α-2,6-sialyltransferases”. In series [2], the “Production of sialyllactose in-vivo” value was 6′-SL. Further, in series [3], the Michaelis-Menten constant (Km) was found to be 2.8 mM and the “Vmax CMP-Neu5Ac” value was determined as 0.21 µmol/min. Besides, in series [4], the Km is 7.6 mM and the “Vmax Lactose” value came out at 0.21 µmol/min. Also, in series [5], the Km stood at 5.2 mM and the “Vmax LNT” value is 0.14 µmol/min.
